Among the data in patent US20250059285A1 are % Competition against g7B07-Biot and Mean OD value values, retold here.

The target of the experiment is human Gal10-His (human) (UniProt Q05315). Nature of the experiment: competition ELISA on coated Gal10-His; negative control, competitor g7B07-hFab-Biot; set as 0%.
Chain of human Gal10-His (human) (Q05315 2-142 limits assumed): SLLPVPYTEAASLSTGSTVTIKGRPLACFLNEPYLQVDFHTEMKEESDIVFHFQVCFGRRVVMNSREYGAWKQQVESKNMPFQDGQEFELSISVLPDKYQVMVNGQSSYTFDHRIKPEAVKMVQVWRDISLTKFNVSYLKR

In turn, Motavizumab in a human Fab backbone yielded a % Competition against g7B07-Biot of 0% and a Mean OD value of 2.51 OD.
